From paper PMC7710722, “A nanobody suite for yeast scaffold nucleoporins provides details of the nuclear pore complex structure” (Nature Communications, 2020)
One block for each binder: values may come before it.

Assays:
Conditions in all cases: both partners purified
[1] = target: T1, Nup85 (analyte of the BLI of Table 1) (Saccharomyces cerevisiae S288c, UniProt P46673); assay: BLI; biotinylated, C-terminally Avi-tagged nanobody immobilised on streptavidin tips, nup as analyte in twofold dilution series; 10 mM Tris/HCl pH 7.5, 150 mM NaCl, 1 mM DTT, 0.1 mM EDTA, 0.05% Tween-20, 0.1% BSA; global 1:1 kinetic fit
T1 construct: Nup85, S. cerevisiae; the analyte may have been a complex with Seh1; source: E. coli, recombinant

[2] = target: T2, Nup120 (analyte of the BLI of Table 1) (Saccharomyces cerevisiae S288c, UniProt P35729); assay: as above
T2 construct: Nup120, S. cerevisiae; source: E. coli, recombinant

[3] = target: T3, Sec13 fused to the Nup145C insertion blade (Saccharomyces cerevisiae S288c, UniProt Q04491); assay: SEC; nup and nanobody incubated 30 min on ice, then Superdex S75 or S200 10/300 in 150 mM NaCl, 10 mM Tris/HCl pH 7.5, 1 mM DTT, 0.1 mM EDTA
T3 construct: Sec13, S. cerevisiae; Nup145C insertion blade, S. cerevisiae, residues 320-411 as printed; also called Sec13-Nup145C_(320–411); Sec13-Nup145C_(blade); source: E. coli LOBSTR-RIL(DE3), purified (Ni Sepharose, 3C protease, Superdex S75)

[4] = target: T4, fusion construct of Nup145C-Sec13 (Saccharomyces cerevisiae S288c, UniProt P49687;Q04491); assay: as above
T4 construct: Nup145C, the C-terminal product of Nup145, S. cerevisiae; named among the 'full-length nups'; Sec13, S. cerevisiae; source: E. coli

Nup85_(1–564) = target: T5, Nup85_(1–564) (S. cerevisiae, UniProt P46673 1-564); assay: crystal structure; nup-nanobody complexes crystallised at 18 °C; solved by molecular replacement
T5 construct: Nup85, S. cerevisiae, residues 1-564 (crown and trunk modules); The Nup85 chain of m31, written alone for the pairs that touch in the structure 6X08; also called Nup85_(trunk-crown); Nup85_(crown-trunk); source: E. coli LOBSTR-RIL(DE3), purified together with Seh1
T5 sequence (looked up): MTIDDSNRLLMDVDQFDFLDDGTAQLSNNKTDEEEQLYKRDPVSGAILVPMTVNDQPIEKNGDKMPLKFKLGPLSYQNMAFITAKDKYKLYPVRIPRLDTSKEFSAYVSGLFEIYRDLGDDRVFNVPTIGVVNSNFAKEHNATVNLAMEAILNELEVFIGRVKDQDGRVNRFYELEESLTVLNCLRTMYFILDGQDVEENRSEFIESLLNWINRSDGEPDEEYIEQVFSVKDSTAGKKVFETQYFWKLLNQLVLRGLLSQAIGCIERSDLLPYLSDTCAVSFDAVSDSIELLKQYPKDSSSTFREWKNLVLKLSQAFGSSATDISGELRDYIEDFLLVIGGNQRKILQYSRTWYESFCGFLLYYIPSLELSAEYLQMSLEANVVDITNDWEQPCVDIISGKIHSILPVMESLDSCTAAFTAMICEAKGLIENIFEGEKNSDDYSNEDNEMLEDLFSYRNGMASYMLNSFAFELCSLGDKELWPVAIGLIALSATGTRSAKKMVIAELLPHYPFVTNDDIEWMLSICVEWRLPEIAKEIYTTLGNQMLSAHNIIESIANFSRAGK

[5] = target: T6, Nup133 (analyte of the BLI of Table 1) (Saccharomyces cerevisiae (strain ATCC …, UniProt P36161)); assay: BLI; biotinylated, C-terminally Avi-tagged nanobody immobilised on streptavidin tips, nup as analyte in twofold dilution series; 10 mM Tris/HCl pH 7.5, 150 mM NaCl, 1 mM DTT, 0.1 mM EDTA, 0.05% Tween-20, 0.1% BSA; global 1:1 kinetic fit
T6 construct: Nup133, S. cerevisiae; source: E. coli, recombinant

Nup84 = target: T7, Nup84 (S. cerevisiae, UniProt P52891); assay: as above
T7 construct: Nup84, S. cerevisiae; limits not given; source: E. coli LOBSTR-RIL(DE3), purified (Ni Sepharose, 3C protease, HiTrap SP FF flow-through, Superdex S200)

Nic96_(186–839) = target: T8, Nic96_(186–839) (Saccharomyces cerevisiae S288c, UniProt P34077); assay: as above
T8 construct: The only Nic96 construct in the methods; source: E. coli LOBSTR-RIL(DE3), purified (Ni Sepharose, 3C protease, Superdex S200)

[6] = target: T9, Sec13 (analyte of the BLI of Table 1) (Saccharomyces cerevisiae S288c, UniProt Q04491); assay: as above
T9 construct: Sec13, S. cerevisiae; The analyte may have been Sec13 fused to the Nup145C insertion blade; source: E. coli, recombinant

[7] = target: T10, Nup120-Nup85-Seh1-Nup145C-Sec13 (Saccharomyces cerevisiae S288c, UniProt P35729;P46673;P53011;P49687;Q04491); assay: SEC; nup and nanobody incubated 30 min on ice, then Superdex S75 or S200 10/300 in 150 mM NaCl, 10 mM Tris/HCl pH 7.5, 1 mM DTT, 0.1 mM EDTA
T10 construct: Nup120, S. cerevisiae; Nup85, S. cerevisiae; Seh1, S. cerevisiae; Nup145C, the C-terminal product of Nup145, S. cerevisiae, residues 34-712; Sec13, S. cerevisiae; Nup145C and Sec13 may stand on one chain as in the fusion construct; also called assembled Y complex hub; source: E. coli, purified; assembled from Nup85-Seh1 and Nup120-Nup145C_(34–712)-Sec13 on Superdex S200; copies: + + + +

T7 sequence (P52891 whole entry): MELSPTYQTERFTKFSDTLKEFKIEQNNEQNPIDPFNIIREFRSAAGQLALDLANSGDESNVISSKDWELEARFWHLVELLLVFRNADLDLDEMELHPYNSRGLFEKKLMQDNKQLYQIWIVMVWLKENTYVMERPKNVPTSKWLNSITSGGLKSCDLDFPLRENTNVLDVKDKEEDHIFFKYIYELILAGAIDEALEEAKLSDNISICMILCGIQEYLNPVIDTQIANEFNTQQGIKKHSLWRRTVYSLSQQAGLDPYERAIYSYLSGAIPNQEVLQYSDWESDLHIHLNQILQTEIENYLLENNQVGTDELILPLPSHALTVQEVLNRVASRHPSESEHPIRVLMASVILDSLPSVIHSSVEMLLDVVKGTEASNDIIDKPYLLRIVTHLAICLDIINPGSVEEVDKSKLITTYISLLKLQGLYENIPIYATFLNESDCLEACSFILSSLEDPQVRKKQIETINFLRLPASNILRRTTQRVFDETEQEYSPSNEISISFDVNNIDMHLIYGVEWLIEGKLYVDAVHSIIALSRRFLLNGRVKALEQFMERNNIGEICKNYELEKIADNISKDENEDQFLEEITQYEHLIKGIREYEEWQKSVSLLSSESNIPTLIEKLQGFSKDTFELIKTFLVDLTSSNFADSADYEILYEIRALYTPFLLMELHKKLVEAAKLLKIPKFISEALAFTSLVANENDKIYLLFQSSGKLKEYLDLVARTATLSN
T6 sequence (P36161 whole entry): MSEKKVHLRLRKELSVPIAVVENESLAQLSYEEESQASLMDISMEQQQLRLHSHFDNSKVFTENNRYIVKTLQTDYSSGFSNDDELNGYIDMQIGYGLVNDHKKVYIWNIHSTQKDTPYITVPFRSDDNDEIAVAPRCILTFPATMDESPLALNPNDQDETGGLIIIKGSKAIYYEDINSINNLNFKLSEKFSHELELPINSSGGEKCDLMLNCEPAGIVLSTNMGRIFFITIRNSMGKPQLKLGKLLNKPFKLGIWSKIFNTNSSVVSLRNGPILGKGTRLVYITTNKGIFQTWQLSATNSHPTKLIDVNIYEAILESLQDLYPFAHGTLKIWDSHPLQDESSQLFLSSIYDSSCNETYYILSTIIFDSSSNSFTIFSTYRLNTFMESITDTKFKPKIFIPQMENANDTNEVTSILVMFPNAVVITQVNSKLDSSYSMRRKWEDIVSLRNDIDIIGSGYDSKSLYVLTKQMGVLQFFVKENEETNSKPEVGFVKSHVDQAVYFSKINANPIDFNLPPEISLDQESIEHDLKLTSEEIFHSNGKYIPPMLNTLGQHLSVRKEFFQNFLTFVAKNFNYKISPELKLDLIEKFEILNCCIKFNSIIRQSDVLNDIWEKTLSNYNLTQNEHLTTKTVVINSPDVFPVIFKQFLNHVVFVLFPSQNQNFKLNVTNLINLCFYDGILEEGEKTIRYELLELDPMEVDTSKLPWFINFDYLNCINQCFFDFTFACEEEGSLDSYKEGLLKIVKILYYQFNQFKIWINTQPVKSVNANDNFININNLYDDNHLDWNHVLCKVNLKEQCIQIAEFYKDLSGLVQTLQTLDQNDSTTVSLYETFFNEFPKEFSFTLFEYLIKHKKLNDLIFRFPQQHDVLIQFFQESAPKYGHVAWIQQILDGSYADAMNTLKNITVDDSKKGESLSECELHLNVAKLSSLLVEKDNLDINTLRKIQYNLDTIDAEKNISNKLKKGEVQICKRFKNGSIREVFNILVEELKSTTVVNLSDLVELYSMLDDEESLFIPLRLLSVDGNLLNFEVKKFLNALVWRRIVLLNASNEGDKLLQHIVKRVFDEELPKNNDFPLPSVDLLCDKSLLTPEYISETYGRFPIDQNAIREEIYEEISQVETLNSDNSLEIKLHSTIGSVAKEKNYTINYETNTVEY
T9 sequence (Q04491 whole entry, the tested form may be a part): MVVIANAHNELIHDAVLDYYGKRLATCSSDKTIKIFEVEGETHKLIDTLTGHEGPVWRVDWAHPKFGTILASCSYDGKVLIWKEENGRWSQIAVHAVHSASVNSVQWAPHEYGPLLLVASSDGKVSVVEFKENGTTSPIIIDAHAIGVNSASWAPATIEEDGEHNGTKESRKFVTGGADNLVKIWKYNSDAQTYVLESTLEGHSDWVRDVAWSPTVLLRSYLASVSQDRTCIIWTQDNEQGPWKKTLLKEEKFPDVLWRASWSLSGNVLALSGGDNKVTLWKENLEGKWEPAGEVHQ
T2 sequence (P35729 whole entry): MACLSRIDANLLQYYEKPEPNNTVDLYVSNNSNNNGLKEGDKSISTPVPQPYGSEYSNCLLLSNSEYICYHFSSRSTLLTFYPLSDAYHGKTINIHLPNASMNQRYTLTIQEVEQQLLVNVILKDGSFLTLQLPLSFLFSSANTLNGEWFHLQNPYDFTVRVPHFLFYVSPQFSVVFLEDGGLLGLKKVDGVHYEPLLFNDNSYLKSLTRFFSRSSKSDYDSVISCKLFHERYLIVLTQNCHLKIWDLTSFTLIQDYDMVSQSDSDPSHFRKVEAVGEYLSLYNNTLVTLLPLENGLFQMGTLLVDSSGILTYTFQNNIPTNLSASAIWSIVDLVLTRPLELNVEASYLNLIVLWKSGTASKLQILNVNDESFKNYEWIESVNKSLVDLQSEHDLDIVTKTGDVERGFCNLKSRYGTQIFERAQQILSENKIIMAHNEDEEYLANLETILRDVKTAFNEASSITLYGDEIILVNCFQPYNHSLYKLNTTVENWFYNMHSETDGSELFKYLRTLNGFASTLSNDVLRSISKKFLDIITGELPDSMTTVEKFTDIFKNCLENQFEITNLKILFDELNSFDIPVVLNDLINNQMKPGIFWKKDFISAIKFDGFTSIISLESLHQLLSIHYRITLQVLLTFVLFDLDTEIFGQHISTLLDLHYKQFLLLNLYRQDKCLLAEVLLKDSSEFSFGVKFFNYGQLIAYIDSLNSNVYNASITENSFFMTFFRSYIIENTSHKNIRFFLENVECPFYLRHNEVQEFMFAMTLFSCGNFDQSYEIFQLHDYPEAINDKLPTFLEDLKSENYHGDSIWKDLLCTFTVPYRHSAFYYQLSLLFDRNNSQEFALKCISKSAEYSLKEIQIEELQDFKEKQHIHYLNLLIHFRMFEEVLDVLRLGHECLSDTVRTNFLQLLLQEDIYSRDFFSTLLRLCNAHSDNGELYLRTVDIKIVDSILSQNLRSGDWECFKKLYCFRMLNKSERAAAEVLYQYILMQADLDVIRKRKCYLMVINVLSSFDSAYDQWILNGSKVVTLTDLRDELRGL

B1: VHH-SAN1 with biotinylated C-terminal Avi-tag (VHH)
VHH: QVQLVETGGGLVPPGGSLKLSCAVSGDILRVQTMGWYRQAPGKQRELVAAFTGGGRTNYADSMKGRFTISRDNAKNTVFLQMNSLKPEDTAVYYCRADIAAVRPWPLQEYWGQGTQVTVSS
notes: Separate Avi-tagged construct used for BLI; source: E. coli LOBSTR-RIL(DE3), biotin added to the culture, purified (Ni Sepharose, SEN-p protease, Superdex S75); not shown: 14xHis, N-terminal, cleaved; bdSUMO, N-terminal, cleaved; Avi-tag, C-terminal, kept
Kd [1]: 0.58 nM
koff [1]: 0.0014 s⁻¹
kon [1]: 2.3e+06 M⁻¹ s⁻¹

B3: VHH-SAN6 (VHH)
VHH: QLQLVETGGGSVQAGGSLSLSCIVSGRTSTYYAMGWFRQAPGKEREFVAAINWSGSSTVYEESVKGRFTISRDNVQNTVYLQMNSLKPEDTADYYCAAAATIFIPRPDEYPYWGQGTQVTVSS
notes: source: E. coli LOBSTR-RIL(DE3), purified (Ni Sepharose, SEN-p protease, Superdex S75); not shown: 14xHis, N-terminal, cleaved; bdSUMO, N-terminal, cleaved
binding result [3]: no binding
binding result [4]: binds

B4: Seh1 (natural protein, S. cerevisiae)
chain: MQPFDSGHDDLVHDVVYDFYGRHVATCSSDQHIKVFKLDKDTSNWELSDSWRAHDSSIVAIDWASPEYGRIIASASYDKTVKLWEEDPDQEECSGRRWNKLCTLNDSKGSLYSVKFAPAHLGLKLACLGNDGILRLYDALEPSDLRSWTLTSEMKVLSIPPANHLQSDFCLSWCPSRFSPEKLAVSALEQAIIYQRGKDGKLHVAAKLPGHKSLIRSISWAPSIGRWYQLIATGCKDGRIRIFKITEKLSPLASEESLTNSNMFDNSADVDMDAQGRSDSNTEEKAELQSNLQVELLSEHDDHNGEVWSVSWNLTGTILSSAGDDGKVRLWKATYSNEFKCMSVITAQQ
notes: Seh1, S. cerevisiae; Used alone in SEC with VHH-SAN1; also written alone for its contact with Nup85(1-564) in the structure 6X08; also called Seh1 alone; source: E. coli
binding result (Nup85_(1–564)): binds

B5: VHH-SAN4 with biotinylated C-terminal Avi-tag (VHH)
VHH: QLQLVESGGGSVQAGGSLTLSCTASESISKRIHGIGWFRQRRGEQREEIAYITTGGRPNLGDSVKDRFTISRDKSNGTVYLQMNSLKPEDTAVYYCHGRGRWWGTEGRLDYWGQGTQVTVSS
notes: as for B1
Kd [5]: 230 nM
koff [5]: 0.22 s⁻¹
kon [5]: 950000 M⁻¹ s⁻¹

B8: VHH-SAN9 with biotinylated C-terminal Avi-tag (VHH)
VHH: QVQLVESGGGSVQAGGSLRLSCAVSGGTLSTLAMGWFRQAPGQEREFVARIGWTNGDTGYADSVKGRFTISRDNVKNTVYLQMNNLKPEDTALYYCATRRPYGSTLYPPNTESAHDNWGQGTQVTVSS
notes: as for B1
Kd (Nup84): 0.17 nM
koff (Nup84): 7.7e-05 s⁻¹
kon (Nup84): 440000 M⁻¹ s⁻¹

B10: VHH-SAN5 with biotinylated C-terminal Avi-tag (VHH)
VHH: QVQLVESGGGLVQAGGSLRLSCAASGSIGSLDAMAWYRRAPGKQRERVASISRYGTYYVDSVKGRFTISRDNAKNTVYLQMNSLKPEDTGVYYCKGVMEVGGVIDEYWGQGTQVTVSS
notes: as for B1
Kd [5]: 10 nM
koff [5]: 0.0028 s⁻¹
kon [5]: 280000 M⁻¹ s⁻¹

B11: VHH-SAN2 with biotinylated C-terminal Avi-tag (VHH)
VHH: QVQLVETGGGLVQPGGSLRLSCAASGFTLDDYAIGWFRQAPGKEREGVSCISRSGGSTTYTDSVKGRFTISRDNAENTVYLQMNSLKPEDTAVYYCAAARTRGTCWLNRIGMDYWGKGTQVTVSS
notes: also in PDB 6X08; Separate Avi-tagged construct used for BLI; source: E. coli LOBSTR-RIL(DE3), biotin added to the culture, purified (Ni Sepharose, SEN-p protease, Superdex S75); not shown: 14xHis, N-terminal, cleaved; bdSUMO, N-terminal, cleaved; Avi-tag, C-terminal, kept
Kd [1]: 0.08 nM
koff [1]: 8.1e-05 s⁻¹
kon [1]: 1e+06 M⁻¹ s⁻¹

B14: VHH-SAN7 (VHH)
VHH: QVQLVETGGGLVQPGGSLRLSCVASGSIFGINAMGWYRQAPGNQRELVASIRSDFGTTKYADSVKGRFTISRGNARTTVYLQMNSLKPEDTAVYYCRIWSADGNYWGQGTQVTVSS
notes: as for B3
binding result [7]: binds
binding result [4]: binds

Next, values leading:

Kd [2]: 0.38 nM
koff [2]: 0.00017 s⁻¹
kon [2]: 450000 M⁻¹ s⁻¹
B2: VHH-SAN10 with biotinylated C-terminal Avi-tag (VHH)
VHH: QVQLVETGGGLVQAGGSLRLSCVVSGRTFSSYAMGWFRQAPGKEREFVSGINWSGGSAYYGDSVKGRFTISRDNAKNTVYLQMNSLKPEDTAVYYCVADRAWRGTTWRADSSYDYWGQGTQVTVSS
notes: deposited with PDB 6X06, but no density for VHH-SAN10 in the map; Separate Avi-tagged construct used for BLI; source: E. coli LOBSTR-RIL(DE3), biotin added to the culture, purified (Ni Sepharose, SEN-p protease, Superdex S75); not shown: 14xHis, N-terminal, cleaved; bdSUMO, N-terminal, cleaved; Avi-tag, C-terminal, kept

Kd [2]: 0.79 nM
koff [2]: 0.00078 s⁻¹
kon [2]: 980000 M⁻¹ s⁻¹
B6: VHH-SAN11 with biotinylated C-terminal Avi-tag (VHH)
VHH: QVQLVETGGGLVRAGGSLRLSCVDSGRTFRVYTMGWFRQAPGKEREFVAAIRWSGDRTYYGDPVQGRFTISRDKGKNTVYLQMNSLKPEDTAVYYCAAPAGGGVVYDDHKAYAYWGQGTQVTVS
notes: also in PDB 6X06; Separate Avi-tagged construct used for BLI; source: E. coli LOBSTR-RIL(DE3), biotin added to the culture, purified (Ni Sepharose, SEN-p protease, Superdex S75); not shown: 14xHis, N-terminal, cleaved; bdSUMO, N-terminal, cleaved; Avi-tag, C-terminal, kept

Kd [1]: 0.014 nM
koff [1]: 8.1e-06 s⁻¹
kon [1]: 580000 M⁻¹ s⁻¹
B7: VHH-SAN3 with biotinylated C-terminal Avi-tag (VHH)
VHH: QVQLVESGGGLVQAGGSLRLSCFASGGTFSRYDMGWFRQAPGKEREFVARITRGGRVADYAAFVEGRFTISRDNAKNTVYLQMNSLKPEDTGIYFCAGKDAGVFDFYLWGQGTQVTVSS
notes: as for B1

Kd (Nic96_(186–839)): 1.3 nM
koff (Nic96_(186–839)): 0.0024 s⁻¹
kon (Nic96_(186–839)): 1.8e+06 M⁻¹ s⁻¹
B9: VHH-SAN12 with biotinylated C-terminal Avi-tag (VHH)
VHH: QVQLVETGGGLVQAGGSLRLSCATSGFNFRLRTMGWYRQAPGKERELVASITSGGSTDYADSVKGRFTISRDNAKNTISLEMNSLKPDDTAVYYCNIWAPTTAAITNWGQGTQVTVSS
notes: also in PDB 6X07; Separate Avi-tagged construct used for BLI; source: E. coli LOBSTR-RIL(DE3), biotin added to the culture, purified (Ni Sepharose, SEN-p protease, Superdex S75); not shown: 14xHis, N-terminal, cleaved; bdSUMO, N-terminal, cleaved; Avi-tag, C-terminal, kept

Kd (Nup84): 0.063 nM
koff (Nup84): 2.2e-05 s⁻¹
kon (Nup84): 350000 M⁻¹ s⁻¹
B12: VHH-SAN8 with biotinylated C-terminal Avi-tag (VHH)
VHH: QLQLVETGGGLVQAGGSLRLSCVASGRTFTSYAMGWFRQAPGKEREFVAAISRLASGTDYADSVKGRFTISRNNDKNTVYLQMNNLIPEDTAVYYCAALQALRFSLPIAMATMKNGRADSWGQGTQVTVSS
notes: as for B1

Kd [6]: 0.51 nM
koff [6]: 0.00065 s⁻¹
kon [6]: 1.3e+06 M⁻¹ s⁻¹
B13: VHH-SAN7 with biotinylated C-terminal Avi-tag (VHH)
VHH: B14 VHH
notes: as for B1
